Data as given in article PMC4253524 (The EMBO Journal, 2014).

Target: T1, Flag-tagged RelishΔS29-S45 (Drosophila melanogaster, UniProt Q94527 1-971, ΔS29-S45)
T1 sequence (looked up): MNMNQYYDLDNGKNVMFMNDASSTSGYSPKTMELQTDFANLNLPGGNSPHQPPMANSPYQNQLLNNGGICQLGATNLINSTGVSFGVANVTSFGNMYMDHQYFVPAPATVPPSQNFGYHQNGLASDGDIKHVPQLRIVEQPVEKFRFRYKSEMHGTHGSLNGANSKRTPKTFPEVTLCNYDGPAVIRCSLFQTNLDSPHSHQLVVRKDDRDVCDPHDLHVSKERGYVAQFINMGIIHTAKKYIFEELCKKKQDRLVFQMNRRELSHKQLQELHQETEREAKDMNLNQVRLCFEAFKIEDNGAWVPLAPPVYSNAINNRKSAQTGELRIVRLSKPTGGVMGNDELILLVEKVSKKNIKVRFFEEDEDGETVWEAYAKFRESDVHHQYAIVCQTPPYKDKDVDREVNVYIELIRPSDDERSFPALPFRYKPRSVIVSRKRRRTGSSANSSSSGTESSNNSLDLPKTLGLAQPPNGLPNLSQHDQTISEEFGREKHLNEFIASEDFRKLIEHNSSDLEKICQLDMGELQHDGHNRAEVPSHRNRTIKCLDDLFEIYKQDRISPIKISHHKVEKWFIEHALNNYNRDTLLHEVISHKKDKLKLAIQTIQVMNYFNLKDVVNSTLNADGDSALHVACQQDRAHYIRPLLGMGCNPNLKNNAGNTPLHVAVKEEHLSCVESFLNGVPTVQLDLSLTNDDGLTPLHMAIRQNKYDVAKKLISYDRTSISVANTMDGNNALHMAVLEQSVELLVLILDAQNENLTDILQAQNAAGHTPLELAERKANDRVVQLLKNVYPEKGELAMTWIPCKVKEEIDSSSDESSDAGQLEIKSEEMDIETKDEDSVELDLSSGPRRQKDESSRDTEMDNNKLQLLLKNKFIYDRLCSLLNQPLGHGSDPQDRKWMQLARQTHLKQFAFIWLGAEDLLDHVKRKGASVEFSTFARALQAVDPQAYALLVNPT
Experiment: co-IP

B1: His-tagged Akirin (natural protein, Drosophila melanogaster, UniProt Q9VS59 1-201, looked up)
chain: MACATLKRALDWESMNQRPPKRRRCNPFGQAGSNAGPASPSRDGPSTSAGLPHTPSNRFAKDSTEPSPFSESSLAKMSPDKMAESLCNEIKRLHKRKQLPITSSALERMQDSESSGSEMGPESPRRPDSPQNLMRHGEKALFTFKQVQLICESMIKERENQLRERYESVLTTKLAEQYDAFVKFTYDQIQRRYEAAPSYLS
B1: binds.
